Sequences and labels used below:
B1: OR4K15 (parent)
chain: GUUAACGGUCAUAGGCCAUGGAAACUAGGAGCACCAUUUCGCUGCCAGUGAAGAAAUGAACAAAGAAAAUCUGGGCCAGGCAGGCAUCAAAAGAAAUAGUCUUGCGCUCAACCAGAAAGUCUGUAAUCAUUUUAAGGGUA

Variants of B1 are the subject of this series. As to the kind of experiment: self-cleavage, relative activity (ratio to wild type); higher = more cleavage; in vitro, sequencing; the parent is a self-cleaving ribozyme.
With A27G A129U, the self-cleavage was found to be 0.72.
With U19A A82U, the self-cleavage was found to be 0.34.
The same measure for U26G A62G: 1.02.
To G74A A110G belongs 0.02.
The same measure for U3A A68G: 2.27; for U38A A98G: 0.91; for A23G A135G: 1.13.
With A5G U120G, the self-cleavage was determined as 0.39.
To A27U A68G belongs 1.61.
To A56G A111G belongs 0.01; to A51G U57C, 0.93.
The same measure for U9G A62U: 0.44; for A23G U131C: 0.45; for A117U A126G: 0.89.
For A86G A89C, the self-cleavage was 0.67.
On to U102C C128U, for which the self-cleavage was found to be 1.62.
The same measure for G1A A114U: 0.26; for A86U A94G: 1.72.
To A51U U72A belongs 0.45; to A11G A114G, 0.46; to U108C A125U, 0.01.
The same measure for U132C U139A: 0.99.
As to U2C A140U, the self-cleavage worked out at 1.55.
On to A67G G138A, for which the self-cleavage was determined as 0.97.
In the case of U39C A86G, the self-cleavage is 1.19.
Turning to A68C A78G, the self-cleavage stood at 0.24.
For U122C A140U, the self-cleavage amounted to 1.13.
U72C U131A: the self-cleavage stood at 0.1.
To U38C C77U belongs 2.04.
Take A114C A117G: the self-cleavage came to 0.05.
Regarding A86G U102C, the self-cleavage worked out at 2.36.
In the case of A33U A60G, the self-cleavage turned out to be 1.38.
A67U U131G: the self-cleavage came out at 1.68.
To C45A A129G belongs 0.87; to A24G A114G, 0.44; to U9C U108C, 0.02.
As for A27U A30G, the self-cleavage stood at 0.38.
As for A18G U124A, the self-cleavage was found to be 0.9.
With A90G A110G, the self-cleavage is 0.1.
To A63G A67G belongs 1.6.
On to U72C U102A, for which the self-cleavage turned out to be 0.07.
The same measure for A86G A114C: 0.06; for A96G C107A: 0.01.
The same measure for U72A A140G: 0.32; for A98U A126G: 1.86.
The same measure for A86U U120C: 1.11.
On to A27U A86G, for which the self-cleavage was 1.43.
The same measure for C17G U39A: 1.07; for G7U A95G: 1.43; for A94G C113U: 0.03.
Turning to G41A A60G, the self-cleavage was determined as 1.63.
To A52U A116G belongs 1.
For the variant U19A U102C, the self-cleavage was found to be 1.65.
For the variant C101U C105A, the self-cleavage is 0.01.
For the variant A13G A96U, the self-cleavage came out at 1.14.
The same measure for U70A A95G: 1.98; for G74A A117G: 0.2.
The same measure for U72C A114G: 2.31.
The same measure for A23G A126G: 0.76; for A54G A134G: 1.2; for A51G U103C: 1.09.
With C17U A69G, the self-cleavage amounted to 0.62.
A111G U139C: the self-cleavage stood at 0.01.
For A62G A89U, the self-cleavage is 1.85.
To A33U G99A belongs 1.09.
On to C107U C121U, for which the self-cleavage stood at 0.01.
To U43C A55G belongs 1.07; to U70C U130A, 0.19; to U57A A98G, 0.42.
For U12C U70C, the self-cleavage came out at 1.25.
To A68G C121U belongs 0.29; to A13G U122A, 0.97.
To A51G A117G belongs 2.07; to A126G A134G, 1.17.
The same measure for A11U A117G: 1.41; for A54G U57A: 1.26; for A13G G15U: 1.33.
C10U U132C: the self-cleavage worked out at 1.26.
The same measure for U70G: 0.88; for A60C C71U: 0.04.
The same measure for C16A A89G: 1.37.
The same measure for U87A A89C: 0.99; for U43C A59U: 1.48; for U72A U120C: 0.18.
For A24C A111G, the self-cleavage amounted to 0.01.
To A4G U72A belongs 0.22; to A56U A114G, 0.36; to A82G U132A, 0.91.
Consider A63C U132C, for which the self-cleavage was 2.13.
To A5U A91G belongs 0.86; to U2C G119A, 1.05.
To A51G U100A belongs 0.56; to A33C U132C, 1.46; to U26A A59U, 1.22.
G7A A66G: the self-cleavage was found to be 1.18.
To A82C U131A belongs 0.14.
Turning to A91C U124C, the self-cleavage worked out at 1.67.
To A56G A126G belongs 0.36; to G7A A22U, 1.51.
The same measure for A18U A96U: 1.88.
To A60G U87A belongs 1.02; to C35U U57A, 0.59.
For the variant A55G A82U, the self-cleavage was found to be 0.22.
For A89G U103C, the self-cleavage came out at 0.55.
In the case of A86G A118U, the self-cleavage amounted to 0.52.
To A62G A95U belongs 2; to U9C U38G, 2.11.
To A55G U57C belongs 1.13; to A129G U133C, 1.42; to A23G A89G, 1.32.
The same measure for A5G A27U: 0.96; for U37C U100C: 1.67.
A56G U120C: the self-cleavage was 0.89.
The same measure for G21A A33U: 2.16; for A13U A55G: 0.85; for A86U U127A: 2.92.
The same measure for A13G A60G: 1.33; for U57G U127C: 1.33.
On to A18G A52U, for which the self-cleavage came to 1.21.
In the case of U2A C10U, the self-cleavage came to 0.88.
The same measure for A22G A60G: 0.94; for G79A: 0.14.
The same measure for U49G U139C: 1.49.
Regarding G79A A140G, the self-cleavage turned out to be 0.13.
In the case of A78U U103C, the self-cleavage was found to be 0.06.
To C71A A98G belongs 0.14; to U3A A78G, 0.14.
As for G41U A60G, the self-cleavage was determined as 1.9.
The same measure for U38A A91G: 1.4.
With A22G U131A, the self-cleavage was found to be 1.53.
For A89G U100G, the self-cleavage came out at 2.03.
A89G U100A: the self-cleavage was 0.5.
The same measure for U100C U127G: 2.43; for A24U U57C: 0.73.
As to G7A U124C, the self-cleavage came out at 1.03.
In the case of A62U U87C, the self-cleavage was determined as 1.57.
The same measure for A36U A69G: 1.56.
To U19A U133C belongs 1.73; to U38C A89G, 1.9.
Turning to A30G C112A, the self-cleavage was determined as 0.02.
The same measure for U72A A126G: 0.16.
To A33G A60G belongs 0.98; to A66G, 1.09; to G84C A111G, 0.02.
On to U100C U103C, for which the self-cleavage turned out to be 2.89.
The same measure for A23G U39C: 1.54; for A23G U127G: 1; for A13G A23U: 1.32.
As for G58U U102C, the self-cleavage was 1.68.
The same measure for G20A U49A: 1.67; for C10U A91G: 0.68; for A5U U38C: 1.27.
Take A91G A118G: the self-cleavage was 0.94.
To A11G G31C belongs 1.04; to A4G U120A, 1.62; to G65A A110C, 0.19.
For A23G U87C, the self-cleavage was 0.61.
The same measure for A30G A110G: 0.15; for G21U U87C: 1.55; for U38A A90U: 2.21.
The same measure for U38C A86C: 1.31; for U38C A86G: 1.65.
For the variant U26G A66G, the self-cleavage turned out to be 1.09.
To A55G A129U belongs 1.43; to A23G A117G, 1.2; to A51G A91U, 1.61.
For G73U A126G, the self-cleavage stood at 0.07.

Values taken from the RNAGym collection of RNA variant scans (doi:10.7554/elife.90254).
